Laboratory results taken from US20070254831A1 (published 2007).
Bridge positions count the residues as written; N and C are the ends. Ends that are not written are not given here.

Columns and labels:
soluble human FcRn [1] = target: T1, soluble human FcRn (human, UniProt P55899 24-297; P61769 21-119, biotinylated (Sulfo-NHS-LC-Biotin) in the ELISA; amine-coupled to CM5 chip in SPR); assay: SPR, pH 6
T1 construct: also called shFcRn; biotinylated shFcRn

soluble human FcRn [2] = target: T1, soluble human FcRn; assay: SPR, pH 6; remark: listed apart in the source
Procedure: (§1) The following steps were performed to cross-link soluble human or cynomolgus FcRn to the dextran surface of a CM5 sensor chip (Biacore AB, Uppsala, Sweden) by an amine coupling reaction involving 1-ethyl-(3-dimethylaminopropyl)-carbodiimide hydrochloride (EDC) (Biacore AB, Uppsala, Sweden) and N-hydroxysuccinimide (NHS) (Biacore AB, Uppsala, Sweden) as recommended by Biacore (BIAapplications Handbook, version AB, section 4.2, Biacore AB, Uppsala, Sweden). […] Residual sites on the FcRn flow cell were blocked with 1 M ethanolamine hydrochloride pH 8.5 (Biacore AB, Uppsala, Sweden). A control flow cell was blocked with ethanolamine for reference subtraction. For analysis of the monomeric peptides, FcRn was coated to a final density of 4000-5000 response units (RU). For analysis of the peptide dimers, FcRn was coated to a density of 2000-2500 RU. All SPR measurements were performed using a BIACORE 3000 Instrument (Biacore AB Uppsala, Sweden). For measurements done at either pH 6 or pH 7.4, experiments were performed in 50 mM phosphate, 100 mM sodium chloride, 0.01% surfactant P20 (Biacore AB, Uppsala, Sweden).
(§2) Ten, 2-fold dilutions of the peptide were injected over the FcRn-CM5 chip at a rate of 20 μl/min for 2 min. The peptide was dissociated from the chip for 2.5 minutes with buffer. […] Sensorgrams were generated and analyzed using BiaEval software version 3.1 (Biacore AB, Uppsala, Sweden). […]

soluble human FcRn [3] = target: T1, soluble human FcRn; assay: ELISA, competitor human IgG
Procedure: (§3) The wells were coated with 100 μl/well of 1 μg/ml biotinylated-shFcRn in Buffer A. The plate was sealed and incubated at 37° C. for 2 hours. Afterwards, the plate washed with 200 μl/well of Buffer B (Buffer B: 100 mM MES pH 6, 150 mM NaCl, 0.5% BSA IgG-free (Jackson ImmunoResearch, West Grove, Pa.), 0.05% Tween-20). […] To allow for mixing, the plate was rocked for 2 minutes, sealed and incubated at 37° C. for 2 hours. […] The plate was covered, incubated for 30 minutes at room temperature and washed 4 times with 200 μl/well of ice-cold buffer B. SureBlue TMB substrate solution (100 μl/well, KPL, Gaithersburg, Md.) was added and the plate was allowed to incubate at room temperature until color developed, which took 5 to 10 minutes. Once color developed, 100 μl/well of TMB stop solution (KPL, Gaithersburg, Md.) was added and the absorbance was measured at 450 nm. The data was plotted as absorbance vs. peptide concentration to derive the inhibitory concentration 50% (IC₅₀) values.

soluble human FcRn [4] = target: T1, soluble human FcRn; assay: ELISA, competitor human IgG; remark: listed apart in the source
Procedure: as §3

soluble human FcRn [5] = target: T1, soluble human FcRn; assay: ELISA, competitor human IgG; remark: listed apart in the source
Procedure: as §3

soluble human FcRn [6] = target: T1, soluble human FcRn; assay: SPR, pH 6; remark: listed apart in the source
Procedure: as §1
(§4) Ten, 2-fold dilutions of the peptide were injected over the FcRn-CM5 chip at a rate of 20 μl/min for 2 min. The peptide was dissociated from the chip for 2.5 minutes with buffer. Any remaining peptide was removed from the chip with a 30 second injection of HBS-P buffer (Biacore AB, Uppsala, Sweden) at a rate of 30 μl/min. Sensorgrams were generated and analyzed using BiaEval software version 3.1 (Biacore AB, Uppsala, Sweden). The equilibrium RU observed for each injection was plotted against concentration. The equilibrium KD values were derived by analysis of the plots using the steady state affinity model included in the BiaEval software.

soluble human FcRn [7] = target: T1, soluble human FcRn; assay: SPR, pH 6; remark: listed apart in the source
Procedure: as §1, §4

soluble human FcRn [8] = target: T1, soluble human FcRn; assay: ELISA, competitor human IgG; remark: listed apart in the source
Procedure: as §3

soluble human FcRn [9] = target: T1, soluble human FcRn; assay: SPR, pH 6; remark: listed apart in the source
Procedure: as §1, §2

soluble human FcRn [10] = target: T1, soluble human FcRn; assay: SPR, pH 6; remark: listed apart in the source
Procedure: as §1, §4

soluble human FcRn [11] = target: T1, soluble human FcRn; assay: SPR, pH 6; remark: listed apart in the source
Procedure: as §1, §4

soluble human FcRn [12] = target: T1, soluble human FcRn; assay: ELISA, competitor human IgG; remark: listed apart in the source
Procedure: as §3

soluble human FcRn [13] = target: T1, soluble human FcRn; assay: ELISA, competitor human IgG; remark: listed apart in the source
Procedure: as §3

soluble human FcRn [14] = target: T1, soluble human FcRn; assay: ELISA, competitor human IgG; remark: listed apart in the source
Procedure: as §3

soluble human FcRn [15] = target: T1, soluble human FcRn; assay: ELISA, competitor human IgG; remark: listed apart in the source
Procedure: as §3

soluble human FcRn [16] = target: T1, soluble human FcRn; assay: ELISA, competitor human IgG; remark: listed apart in the source
Procedure: as §3

soluble human FcRn [17] = target: T1, soluble human FcRn; assay: ELISA, competitor human IgG; remark: listed apart in the source
Procedure: as §3

soluble human FcRn [18] = target: T1, soluble human FcRn; assay: SPR, pH 6; remark: listed apart in the source
Procedure: as §1, §4

soluble human FcRn [19] = target: T1, soluble human FcRn; assay: SPR, pH 6; remark: listed apart in the source
Procedure: as §1, §2

soluble human FcRn [20] = target: T1, soluble human FcRn; assay: SPR, pH 6; remark: listed apart in the source
Procedure: as §1, §4

soluble human FcRn [21] = target: T1, soluble human FcRn; assay: ELISA, competitor human IgG; remark: listed apart in the source
Procedure: as §3

soluble human FcRn [22] = target: T1, soluble human FcRn; assay: SPR, pH 6; remark: listed apart in the source
Procedure: as §1, §4

soluble human FcRn [23] = target: T1, soluble human FcRn; assay: assay not named for Table 26, taken as the IgG competition ELISA
soluble human FcRn [24] = target: T1, soluble human FcRn; assay: SPR, pH 6; remark: listed apart in the source
Procedure: as §1, §4

soluble human FcRn [25] = target: T1, soluble human FcRn; assay: SPR, pH 7.4
Procedure: as §1, §2

soluble human FcRn [26] = target: T1, soluble human FcRn; assay: SPR, pH 7.4; remark: listed apart in the source
Procedure: as §1, §2

soluble human FcRn [27] = target: T1, soluble human FcRn; assay: SPR, pH 7.4; remark: listed apart in the source
Procedure: as §1, §4

soluble human FcRn [28] = target: T1, soluble human FcRn; assay: SPR, pH 6; remark: listed apart in the source
Procedure: as §1, §4

soluble human FcRn [29] = target: T1, soluble human FcRn; assay: SPR, pH 7.4; remark: listed apart in the source
Procedure: as §1, §4

soluble human FcRn [30] = target: T1, soluble human FcRn; assay: SPR, pH 6; remark: listed apart in the source
Procedure: as §1, §2

soluble human FcRn [31] = target: T1, soluble human FcRn; assay: SPR, pH 7.4; remark: listed apart in the source
Procedure: as §1, §4

soluble human FcRn [32] = target: T1, soluble human FcRn; assay: SPR, pH 6; remark: listed apart in the source
Procedure: as §1, §4

soluble human FcRn [33] = target: T1, soluble human FcRn; assay: SPR, pH 7.4; remark: listed apart in the source
Procedure: as §1, §4

soluble human FcRn [34] = target: T1, soluble human FcRn; assay: SPR, pH 7.4; remark: listed apart in the source
Procedure: as §1, §2

soluble human FcRn [35] = target: T1, soluble human FcRn; assay: SPR, pH 7.4; remark: listed apart in the source
Procedure: as §1, §4

T1 sequence (P55899 24-297 limits assumed, chain 1 of 2): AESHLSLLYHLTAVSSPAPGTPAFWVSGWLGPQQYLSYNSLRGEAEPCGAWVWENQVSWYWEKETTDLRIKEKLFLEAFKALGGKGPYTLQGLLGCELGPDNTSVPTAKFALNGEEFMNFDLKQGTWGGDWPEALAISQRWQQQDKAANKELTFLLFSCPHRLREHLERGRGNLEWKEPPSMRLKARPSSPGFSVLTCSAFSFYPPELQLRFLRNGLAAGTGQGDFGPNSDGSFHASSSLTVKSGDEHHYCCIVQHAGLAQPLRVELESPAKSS
T1 sequence (P61769 21-119 limits assumed, chain 2 of 2): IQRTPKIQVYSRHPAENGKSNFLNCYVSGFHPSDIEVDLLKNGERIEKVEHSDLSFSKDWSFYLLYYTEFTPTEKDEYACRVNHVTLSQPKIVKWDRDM

**Q.** How did the Kd (soluble human FcRn [1]) turn out when QRFXTGHFGGLYPCNGP (Pen (L-penicillamine) at 4; disulfide; C-terminal amide) [Peptide No. 32] was run?
**A.** 250 nM

**Q.** And the Kd (soluble human FcRn [2])?
**A.** 250 nM

**Q.** And the IC50 (soluble human FcRn [3])?
**A.** 2000 nM

**Q.** What about the IC50 (soluble human FcRn [4]) of the same binder?
**A.** 2000 nM

**Q.** And the IC50 (soluble human FcRn [5])?
**A.** 2000 nM

**Q.** And the Kd (soluble human FcRn [6])?
**A.** 250 nM

**Q.** What about the Kd (soluble human FcRn [7]) of the same binder?
**A.** 250 nM

**Q.** What about the IC50 (soluble human FcRn [8]) of the same binder?
**A.** 2000 nM

**Q.** And the Kd (soluble human FcRn [9])?
**A.** 250 nM

**Q.** And the Kd (soluble human FcRn [10])?
**A.** 250 nM

**Q.** What about the Kd (soluble human FcRn [11]) of the same binder?
**A.** 250 nM

**Q.** And the IC50 (soluble human FcRn [12])?
**A.** 2000 nM

**Q.** And the IC50 (soluble human FcRn [13])?
**A.** 2000 nM

**Q.** And the IC50 (soluble human FcRn [14])?
**A.** 2000 nM

**Q.** And the IC50 (soluble human FcRn [15])?
**A.** 2000 nM

**Q.** What about the IC50 (soluble human FcRn [16]) of the same binder?
**A.** 2000 nM

**Q.** And the IC50 (soluble human FcRn [17])?
**A.** 2000 nM

**Q.** What about the Kd (soluble human FcRn [18]) of the same binder?
**A.** 250 nM

**Q.** What about the Kd (soluble human FcRn [19]) of the same binder?
**A.** 250 nM

**Q.** And the Kd (soluble human FcRn [20])?
**A.** 250 nM

**Q.** What about the IC50 (soluble human FcRn [21]) of the same binder?
**A.** 2000 nM

**Q.** And the Kd (soluble human FcRn [22])?
**A.** 250 nM

B1: Peptide No. 289 (peptide)
peptide: RFXTGHFGGLYPC
modifications: not fully specified; Pen at 3; Sar at 9; NMeLeu at 10; intrachain disulfide; C-terminal amide; N-termini joined by an Asp linker that carries PEG 30 kDa
notes: structure only as drawing CHEM-US-00138; also called Pegylated Analog of Peptide No. 285
**Q.** Which IC50 (soluble human FcRn [23]) does the source give for B1 here?
**A.** 18 nM

**Q.** For QRFCTGHFGGLYPCNGP-NH2 (disulfide 4-14 (inferred)) [SEQ ID NO:1], which Kd (soluble human FcRn [24]) is on record?
**A.** 5100 nM

**Q.** What about the Kd (soluble human FcRn [25]) of the same binder?
**A.** 30000 nM

**Q.** And the Kd (soluble human FcRn [26])?
**A.** 30000 nM

**Q.** What about the Kd (soluble human FcRn [27]) of the same binder?
**A.** 30000 nM

**Q.** What about the Kd (soluble human FcRn [11]) of the same binder?
**A.** 5100 nM

**Q.** What about the Kd (soluble human FcRn [28]) of the same binder?
**A.** 5100 nM

**Q.** What about the Kd (soluble human FcRn [29]) of the same binder?
**A.** 30000 nM

**Q.** What about the Kd (soluble human FcRn [30]) of the same binder?
**A.** 5100 nM

**Q.** And the Kd (soluble human FcRn [31])?
**A.** 30000 nM

**Q.** What about the Kd (soluble human FcRn [32]) of the same binder?
**A.** 5100 nM

**Q.** And the Kd (soluble human FcRn [33])?
**A.** 30000 nM

**Q.** And the Kd (soluble human FcRn [34])?
**A.** 30000 nM

**Q.** What about the Kd (soluble human FcRn [18]) of the same binder?
**A.** 5100 nM

**Q.** What about the Kd (soluble human FcRn [35]) of the same binder?
**A.** 30000 nM

**Q.** And the Kd (soluble human FcRn [20])?
**A.** 5100 nM

**Q.** And the Kd (soluble human FcRn [22])?
**A.** 5100 nM
